Experimental data as given in patent publication US20240207464A1 (NIHON MEDI PHYSICS, published 2024).

T1: CD20 (human, UniProt P11836 1-297)
T1 construct: whole, on cells; also called CD20 on Ramos tumor sections (CD20-positive human Burkitt lymphoma-derived cell line)
T1 sequence (looked up): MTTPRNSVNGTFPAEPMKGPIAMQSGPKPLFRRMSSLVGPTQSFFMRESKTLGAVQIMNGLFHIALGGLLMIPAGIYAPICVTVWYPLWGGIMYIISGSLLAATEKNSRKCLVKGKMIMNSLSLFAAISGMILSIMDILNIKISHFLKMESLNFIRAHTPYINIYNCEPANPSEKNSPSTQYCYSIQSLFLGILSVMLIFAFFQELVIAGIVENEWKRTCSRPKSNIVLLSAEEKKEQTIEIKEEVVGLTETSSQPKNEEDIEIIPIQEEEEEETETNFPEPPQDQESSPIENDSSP


Target: T1, CD20
Assay: in vitro autoradiography on frozen Ramos and CCRF-CEM tumor sections
Procedure: Ramos cells of a CD20-positive human Burkitt lymphoma-derived cell line purchased from ATCC (American Type Culture Collection), and CCRF-CEM cells of a CD20-negative human acute lymphoblastic leukemia/T lymphocyte-like cell line were administered subcutaneously to the flanks of female BALB/c nu/nu mice (manufactured by Charles River Laboratories Japan, Inc.) at 5×10⁶ cells to prepare tumor-bearing mice. Thereafter, Ramos tumor and CCRF-CEM tumor were excised and embedded in Tissue-Tek O.C.T. Compound (Sakura Finetek Japan Co., Ltd.) to prepare frozen sections. The radioconjugates obtained in Example 1 and Comparative Example 1 were added to 1% bovine serum albumin-containing PBS each at 1 kBq/mL, and Ramos tumor section and CCRF-CEM tumor section were immersed therein. After contacting the sections with the imaging plate, they were read with a scanner-type image analyzer (Typhoon FLA 7000 manufactured by GE Healthcare Japan) to evaluate the level of radioactivity bound to the sections.

Row | binding result | Binder
1 | binds | radioconjugate (Example 3): conjugate with rituximab by using 89Zr-labeled DOTAGA-DBCO (antibody, human IgG1, kappa, lysine side chain modified with R1 (crosslinker, bonded to the antibody Fc); disulfide between the two cysteines; N-terminal ethyl azide via diglycolic acid and eight PEGs, clicked to DBCO of the 89Zr-DOTAGA-DBCO complex; Fc region site-specifically modified by the peptide of SEQ ID NO: 17 through the crosslinker on its lysine; the peptide carries 89Zr-chelated DOTAGA-DBCO through a click reaction, also called 89Zr complex-labeled antibody) heavy: not shown light: QIVLSQSPAILSASPGEKVTMTCRASSSVSYIHWFQQKPGSSPKPWIYATSNLASGVPVRFSGSGSGTSYSLTISRVEAEDAATYYCQQWTSNPPTFGGGTKLEIKRTVAAPSVFIFPPSDEQLKSGTASVVCLLNNFYPREAKVQWKVDNALQSGNSQESVTEQDSKDSTYSLSSTLTLSKADYEKHKVYACEVTHQGLSSPVTKSFNRGEC peptide: not shown
2 | binds | radioconjugate (Comparative Example 2): conjugate with rituximab by using 89Zr-labeled DOTA-DBCO (antibody, human IgG1, kappa, lysine side chain modified with R1 (crosslinker, bonded to the antibody Fc); disulfide between the two cysteines; N-terminal ethyl azide via diglycolic acid and eight PEGs, clicked to DBCO of the 89Zr-DOTA-DBCO complex; Fc region site-specifically modified by the peptide of SEQ ID NO: 17 through the crosslinker on its lysine; the peptide carries 89Zr-chelated DOTA-DBCO through a click reaction) heavy: not shown light: QIVLSQSPAILSASPGEKVTMTCRASSSVSYIHWFQQKPGSSPKPWIYATSNLASGVPVRFSGSGSGTSYSLTISRVEAEDAATYYCQQWTSNPPTFGGGTKLEIKRTVAAPSVFIFPPSDEQLKSGTASVVCLLNNFYPREAKVQWKVDNALQSGNSQESVTEQDSKDSTYSLSSTLTLSKADYEKHKVYACEVTHQGLSSPVTKSFNRGEC peptide: not shown
